# According to PMC5039624 (Scientific Reports, 2016):
# Where a chain is given by its changes, count along the chain named. Bridge positions count the residues as written; N and C are the ends. Peptide text beside a SMILES is read from it.
# T1: VSDK Q49A (UniProt Q9YDF8 19-160, Q49A)
# T1 sequence: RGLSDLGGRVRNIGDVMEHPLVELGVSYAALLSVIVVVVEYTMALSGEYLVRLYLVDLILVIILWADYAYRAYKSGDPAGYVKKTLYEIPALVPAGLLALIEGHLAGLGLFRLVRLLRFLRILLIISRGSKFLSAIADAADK
# T2: VSDK S51A (UniProt Q9YDF8 19-160, S51A)
# T2 sequence: T1 sequence with A44Q, S46A
# T3: VSDK E107A (UniProt Q9YDF8 19-160, E107A)
# T3 sequence: T1 sequence with A44Q, E102A
# T4: VSDK R120A (UniProt Q9YDF8 19-160, R120A)
# T4 sequence: T1 sequence with A44Q, R115A
# T5: VSDK E45A (UniProt Q9YDF8 19-160, E45A)
# T5 sequence: T1 sequence with E40A, A44Q
# T6: VSDK Y46A (UniProt Q9YDF8 19-160, Y46A)
# T6 sequence: T1 sequence with Y41A, A44Q
# T7: VSDK T47A (UniProt Q9YDF8 19-160, T47A)
# T7 sequence: T1 sequence with T42A, A44Q
# T8: isolated voltage-sensor domain of the voltage-gated potassium channel KvAP (VSDK), wild type (UniProt Q9YDF8 19-160)
# T8 construct: also called WT VSDK; KvAP voltage sensor
# T8 sequence: T1 sequence with A44Q
# B1: VSTx1 (recombinant, wild type) (peptide)
# chain: SECGKFMWKCKNSNDCCKDLVCSSRWKWCVLASPF
# notes: also called WT VSTx1; spider-venom peptide VSTx1; not shown: His6, N-terminal, cleaved; MBP, N-terminal, cleaved
# Experiments:
# [1] = Liposome centrifugation assay, POPG liposomes; assay type: physicochemical; conditions: LUVs extruded through 0.1 μm filters, 10 mM HEPES pH 7.4, 150 mM NaCl; 10 μM toxin, 1 h room temperature, 30 min at 100,000 g; unbound toxin in supernatant by RP-HPLC; fit to partition equilibrium equation
# Procedure: To investigate whether the micelle-binding interface identified by NMR-CSM faithfully reports on the lipid-binding interface of the peptide we used a previously reported liposome centrifugation assay[30] to study the interaction between VSTx1 and phospholipids with different head groups. VSTx1 was incubated with liposomes of different composition, then the liposomes were pelleted using ultracentrifugation and the amount of unbound VSTx1 in the supernatant was determined using reverse-phase (RP) HPLC (Fig. 4a,b). Partition coefficients (Kp) for binding of VSTx1 to liposomes were calculated by fitting to the partition equilibrium equation (see Eqn (3) in Materials and Methods). The Kp for binding to 1-palmitoyl-2-oleoyl-sn-glycero-3-phosphoglycerol (POPG) liposomes was 2.4 × 10^5 while the Kp values for binding to POPC or 1-palmitoyl-2-oleoyl-sn-glycero-3-phosphoethanolamine (POPE) liposomes were close to 0 (both <10^2) (Fig. 4e).
# Large unilamellar vesicles (LUVs) were prepared by drying lipids (POPG and/or POPC, 25 mg/mL) under nitrogen gas, drying the lipid pellet under vacuum, and resuspending the lipids by vortexing for 1 h in an aqueous buffer containing 10 mM HEPES pH 7.4, and 150 mM NaCl. Vesicles were extruded 20 times using 0.1 μm polycarbonate filters (Avanti Polar Lipids, Inc.). Aqueous solutions of the toxin (10 μM) were incubated with varying amounts of vesicles for 1 h at room temperature, then the vesicles were centrifuged for 30 min at 100,000 g before the toxin concentration in the aqueous phase was determined. Aqueous concentrations of VSTx1 were quantified by RP-HPLC using a monolithic C18 column (4.6 × 100 mm). The toxin was eluted with a linear gradient of 10–50% solvent B (0.046% TFA in acetonitrile) in solvent A (0.05% TFA in water) over 10 min at a flow rate of 3 ml/min. The partition coefficients (Kp) for the binding of VSTx1 to liposomes were calculated by fitting to the partition equilibrium equation: […]
# [2] = target: isolated voltage-sensor domain of the voltage-gated potassium channel KvAP (VSDK), wild type (UniProt Q9YDF8); experiment: pull-down
# [3] = target: T1, VSDK Q49A; experiment: pull-down; conditions: both partners purified
# [4] = target: T2, VSDK S51A; experiment: pull-down; conditions: both partners purified
# [5] = target: T3, VSDK E107A; experiment: pull-down; conditions: both partners purified
# [6] = target: T4, VSDK R120A; experiment: pull-down; conditions: both partners purified
# [7] = target: T5, VSDK E45A; experiment: pull-down; conditions: both partners purified
# [8] = target: T6, VSDK Y46A; experiment: pull-down; conditions: both partners purified
# [9] = target: T7, VSDK T47A; experiment: pull-down; conditions: both partners purified
# [10] = target: T8, isolated voltage-sensor domain of the …; experiment: NMR titration; conditions: both partners purified
molecule,measurement,setting,value
"CSCC[C@@H]1NC(=O)[C@H](Cc2ccccc2)NC(=O)[C@H](CCCCN)NC(=O)CNC(=O)[C@@H](NC(=O)[C@H](CCC(=O)O)NC(=O)[C@@H](N)CO)CSSC[C@@H]2NC(=O)[C@@H]3CSSC[C@@H](C(=O)N[C@H](C(=O)N[C@@H](CC(C)C)C(=O)N[C@@H](C)C(=O)N[C@@H](CO)C(=O)N4CCC[C@H]4C(=O)N[C@@H](Cc4ccccc4)C(=O)O)C(C)C)NC(=O)[C@H](Cc4c[nH]c5ccccc45)NC(=O)[C@H](CCCCN)NC(=O)[C@H](Cc4c[nH]c5ccccc45)NC(=O)[C@H](CCCNC(=N)N)NC(=O)[C@H](CO)NC(=O)[C@H](CO)NC(=O)[C@H](CSSC[C@H](NC(=O)[C@H](C)NC(=O)[C@H](Cc4c[nH]c5ccccc45)NC1=O)C(=O)N[C@@H](CCCCN)C(=O)N[C@@H](CC(N)=O)C(=O)N[C@@H](CO)C(=O)N[C@@H](CC(N)=O)C(=O)N[C@@H](CC(=O)O)C(=O)N3)NC(=O)[C@H](C(C)C)NC(=O)[C@H](CC(C)C)NC(=O)[C@H](CC(=O)O)NC(=O)[C@H](CCCCN)NC2=O [K8A] (H-SECGKFMWACKNSNDCCKDLVCSSRWKWCVLASPF-OH; disulfide 3-17, 10-22, 16-29)",Partition coefficient (Kp) for binding to POPG liposomes,[1],0.38 × 10^5
"CSCC[C@@H]1NC(=O)[C@H](Cc2ccccc2)NC(=O)[C@H](CCCCN)NC(=O)CNC(=O)[C@@H](NC(=O)[C@H](CCC(=O)O)NC(=O)[C@@H](N)CO)CSSC[C@@H]2NC(=O)[C@@H]3CSSC[C@@H](C(=O)N[C@H](C(=O)N[C@@H](C)C(=O)N[C@@H](C)C(=O)N[C@@H](CO)C(=O)N4CCC[C@H]4C(=O)N[C@@H](Cc4ccccc4)C(=O)O)C(C)C)NC(=O)[C@H](Cc4c[nH]c5ccccc45)NC(=O)[C@H](CCCCN)NC(=O)[C@H](Cc4c[nH]c5ccccc45)NC(=O)[C@H](CCCNC(=N)N)NC(=O)[C@H](CO)NC(=O)[C@H](CO)NC(=O)[C@H](CSSC[C@H](NC(=O)[C@H](CCCCN)NC(=O)[C@H](Cc4c[nH]c5ccccc45)NC1=O)C(=O)N[C@@H](CCCCN)C(=O)N[C@@H](CC(N)=O)C(=O)N[C@@H](CO)C(=O)N[C@@H](CC(N)=O)C(=O)N[C@@H](CC(=O)O)C(=O)N3)NC(=O)[C@H](C(C)C)NC(=O)[C@H](CC(C)C)NC(=O)[C@H](CC(=O)O)NC(=O)[C@H](CCCCN)NC2=O [L30A] (H-SECGKFMWKCKNSNDCCKDLVCSSRWKWCVAASPF-OH; disulfide 3-17, 10-22, 16-29)",Partition coefficient (Kp) for binding to POPG liposomes,[1],0.55 × 10^5
"CSCC[C@@H]1NC(=O)[C@H](Cc2ccccc2)NC(=O)[C@H](CCCCN)NC(=O)CNC(=O)[C@@H](NC(=O)[C@H](CCC(=O)O)NC(=O)[C@@H](N)CO)CSSC[C@@H]2NC(=O)[C@@H]3CSSC[C@@H](C(=O)N[C@H](C(=O)N[C@@H](CC(C)C)C(=O)N[C@@H](C)C(=O)N[C@@H](CO)C(=O)N4CCC[C@H]4C(=O)N[C@@H](Cc4ccccc4)C(=O)O)C(C)C)NC(=O)[C@H](Cc4c[nH]c5ccccc45)NC(=O)[C@H](CCCCN)NC(=O)[C@H](Cc4c[nH]c5ccccc45)NC(=O)[C@H](CCCNC(=N)N)NC(=O)[C@H](CO)NC(=O)[C@H](CO)NC(=O)[C@H](CSSC[C@H](NC(=O)[C@H](CCCCN)NC(=O)[C@H](Cc4c[nH]c5ccccc45)NC1=O)C(=O)N[C@@H](CCCCN)C(=O)N[C@@H](CC(N)=O)C(=O)N[C@@H](CO)C(=O)N[C@@H](C)C(=O)N[C@@H](CC(=O)O)C(=O)N3)NC(=O)[C@H](C(C)C)NC(=O)[C@H](CC(C)C)NC(=O)[C@H](CC(=O)O)NC(=O)[C@H](CCCCN)NC2=O [N13A] (H-SECGKFMWKCKNSADCCKDLVCSSRWKWCVLASPF-OH; disulfide 3-17, 10-22, 16-29)",Partition coefficient (Kp) for binding to POPG liposomes,[1],2.7 × 10^5
"CSCC[C@@H]1NC(=O)[C@H](Cc2ccccc2)NC(=O)[C@H](CCCCN)NC(=O)CNC(=O)[C@@H](NC(=O)[C@H](CCC(=O)O)NC(=O)[C@@H](N)CO)CSSC[C@@H]2NC(=O)[C@@H]3CSSC[C@@H](C(=O)N[C@H](C(=O)N[C@@H](CC(C)C)C(=O)N[C@@H](C)C(=O)N[C@@H](CO)C(=O)N4CCC[C@H]4C(=O)N[C@@H](Cc4ccccc4)C(=O)O)C(C)C)NC(=O)[C@H](Cc4c[nH]c5ccccc45)NC(=O)[C@H](CCCCN)NC(=O)[C@H](Cc4c[nH]c5ccccc45)NC(=O)[C@H](C)NC(=O)[C@H](CO)NC(=O)[C@H](CO)NC(=O)[C@H](CSSC[C@H](NC(=O)[C@H](CCCCN)NC(=O)[C@H](Cc4c[nH]c5ccccc45)NC1=O)C(=O)N[C@@H](CCCCN)C(=O)N[C@@H](CC(N)=O)C(=O)N[C@@H](CO)C(=O)N[C@@H](CC(N)=O)C(=O)N[C@@H](CC(=O)O)C(=O)N3)NC(=O)[C@H](C(C)C)NC(=O)[C@H](CC(C)C)NC(=O)[C@H](CC(=O)O)NC(=O)[C@H](CCCCN)NC2=O [R24A] (H-SECGKFMWKCKNSNDCCKDLVCSSAWKWCVLASPF-OH; disulfide 3-17, 10-22, 16-29)",Partition coefficient (Kp) for binding to POPG liposomes,[1],0.11 × 10^5
"CSCC[C@@H]1NC(=O)[C@H](Cc2ccccc2)NC(=O)[C@H](CCCCN)NC(=O)CNC(=O)[C@@H](NC(=O)[C@H](CCC(=O)O)NC(=O)[C@@H](N)CO)CSSC[C@@H]2NC(=O)[C@@H]3CSSC[C@@H](C(=O)N[C@H](C(=O)N[C@@H](CC(C)C)C(=O)N[C@@H](C)C(=O)N[C@@H](CO)C(=O)N4CCC[C@H]4C(=O)N[C@@H](Cc4ccccc4)C(=O)O)C(C)C)NC(=O)[C@H](Cc4c[nH]c5ccccc45)NC(=O)[C@H](CCCCN)NC(=O)[C@H](Cc4c[nH]c5ccccc45)NC(=O)[C@H](CCCNC(=N)N)NC(=O)[C@H](CO)NC(=O)[C@H](CO)NC(=O)[C@H](CSSC[C@H](NC(=O)[C@H](CCCCN)NC(=O)[C@H](C)NC1=O)C(=O)N[C@@H](CCCCN)C(=O)N[C@@H](CC(N)=O)C(=O)N[C@@H](CO)C(=O)N[C@@H](CC(N)=O)C(=O)N[C@@H](CC(=O)O)C(=O)N3)NC(=O)[C@H](C(C)C)NC(=O)[C@H](CC(C)C)NC(=O)[C@H](CC(=O)O)NC(=O)[C@H](CCCCN)NC2=O [W7A] (H-SECGKFMAKCKNSNDCCKDLVCSSRWKWCVLASPF-OH; disulfide 3-17, 10-22, 16-29)",Partition coefficient (Kp) for binding to POPG liposomes,[1],0.77 × 10^5
VSTx1 K8A (peptide),percent decrease in binding against wild-type VSTx1,[2],20%
VSTx1 W7A (peptide),percent decrease in binding against wild-type VSTx1,[2],58%
B1,percent decrease in binding against wild-type VSDK,[3],58%
same,binding result,[4],binds
same,percent decrease in binding against wild-type VSDK,[5],59%
same,binding result,[6],binds
same,percent decrease in binding against wild-type VSDK,[7],65%
same,binding result,[8],binds
same,binding result,[9],binds
same,Kd,[10],140 µM
